Results from patent publication US7250304B2, “Functional assay of high-density lipoprotein” (The Regents of the University of California, priority 2000, dated 2007).

Columns and labels:
[1] = tested on: Ox-PAPC, POVPC, PGPC, PEIPC; assay type: cell-based, human
[2] = tested on: human artery wall cell cocultures; test: LDL oxidation by human artery wall cell cocultures (lipid hydroperoxides); assay type: cell-based
Method: (§1) The wells of the microtiter plates were treated with 0.1% gelatin at 37° C. overnight. HASMC were added at a confluent density of 1×10^5 cells/cm^2. Cells were cultured for 2 d at which time they had covered the entire surface of the well and had produced a substantial amount of extracellular matrix. HAEC were subsequently added at 2×10^5 cells/cm^2 and were allowed to grow forming a complete monolayer of confluent HAEC in 2 d. In all experiments, HAEC and autologous HASMC (from the same donor) were used at passage levels of four to six.
In general, the cocultures were treated with native LDL (250 μg/ml) in the absence or presence of HDL for 8 h. The supernatants were collected and used for determination of lipid hydroperoxide levels. The cocultures were subsequently washed and fresh culture medium 199 (M199) without any additions was added and incubated for an additional 8 hrs. This allowed the collection of monocyte chemotactic activity released by the cells as a result of stimulation by the oxidized LDL. At the end of incubation, the supernatants were collected from cocultures, diluted 40-fold, and assayed for monocyte chemotactic activity. […] The number of migrated monocytes was determined microscopically and expressed as the mean±SD of 12 standardized high power fields counted in quadruple wells.
Statistical significance was determined by model 1 ANOVA. […]

[3] = tested on: human artery wall cell cocultures; test: Monocyte chemotaxis assay on coculture conditioned medium; assay type: cell-based; conditions: cocultures incubated 8 hrs with agent, agent removed before LDL
Method: as §1
Monocytes were isolated using a modification of the Recalde method as previously described (Fogelman et al. (1988) J. Lipid Res. 29: 1243-1247) from the blood of normal volunteers after obtaining written consent under a protocol approved by the human research subject protection committee of the University of California, Los Angeles.
In general, the cocultures were treated with native LDL (250 μg/ml) in the absence or presence of HDL for 8 h. The supernatants were collected and used for determination of lipid hydroperoxide levels. The cocultures were subsequently washed and fresh culture medium 199 (M199) without any additions was added and incubated for an additional 8 hrs. […] The number of migrated monocytes was determined microscopically and expressed as the mean±SD of 12 standardized high power fields counted in quadruple wells.

B1: PON: purified human paraoxonase, HDL associated enzyme (protein, UniProt P27169 2-355, looked up)
Serum …: AKLIALTLLGMGLALFRNHQSSYQTRLNALREVQPVELPNCNLVKGIETGSEDLEILPNGLAFISSGLKYPGIKSFNPNSPGKILLMDLNEEDPTVLELGITGSKFDVSSFNPHGISTFTDEDNAMYLLVVNHPDAKSTVELFKFQEEEKSLLHLKTIRHKLLPNLNDIVAVGPEHFYGTNDHYFLDPYLQSWEMYLGLAWSYVVYYSPSEVRVVAEGFDFANGINISPDGKYVYIAELLAHKIHVYEKHANWTLTPLKSLDFNTLVDNISVDPETGDLWVGCHPNGMKIFFYDSENPPASEVLRIQNILTEEPKVTQVYAENGTVLQGSTVASVYKGKLLIGTVFHKALYCEL
In the case of B1, the “biologic activity (induction of monocyte chemotactic activity) of Ox-PAPC, POVPC, PGPC, PEIPC after incubation with enzyme” value [1] is reported as “destruction of the biologic activity of each”, the “ability of pretreated artery wall cocultures to oxidize LDL” value ([2]; cocultures incubated 8 hrs with agent, agent removed before LDL 250 μg/ml) is reported as “rendered the artery wall cells incapable of oxidizing IDL” and the “oxidation by artery wall cells of LDL pre-incubated with the agent” value ([2]; human LDL incubated with agent, re-isolated, then cocultures 8 hrs) is reported as “rendered the LDL resistant to oxidation”. For the same molecule, the “LDL-induced monocyte chemotaxis in pretreated cocultures” value [3] was “prevented LDL-induced monocyte chemotaxis”.
